Holding throughout (test): cell-based or functional assay
Assay [1] addresses Env of HIV isolate 426c (clade C) (HIV).
For assay [2], the target named is Env of HIV isolate BG1168.01 (clade B) (HIV).
The target in assay [3] is Env of HIV isolate BJOX025000.01.1 (clade AE) (HIV).
In assay [4] the target is Env of HIV isolate BJOX028000.10.3 (clade AE) (HIV).
The target of assay [5] is Env of HIV isolate CAP256.206.C9 (clade C) (HIV).
Assay [6] has as its target Env of HIV isolate CH070.1 (clade BC) (HIV).
In assay [7] the target is Env of HIV isolate DU422.01 (clade C) (HIV).
Assay [8] has as its target Env of HIV isolate TV1.29 (clade C) (HIV).
The target in assay [9] is HIV Env of isolate CAP244.D3 (HIV).
Assay [10] addresses HIV Env of isolate 0260.v5.c36 (HIV).
In assay [11] the target is HIV Env of isolate 0330.v4.c3 (HIV).
Assay [12] has as its target HIV Env of isolate 0815.v3.c3 (HIV).
Assay [13] deals with HIV Env of isolate 1012_11_TC21_3257 (HIV).
Assay [14] has as its target HIV Env of isolate 1054_07_TC4_1499 (HIV).
The target of assay [15] is HIV Env of isolate 235-47 (HIV).
Assay [16] deals with HIV Env of isolate 246F_C1G (HIV).
Assay [17] concerns the target HIV Env of isolate 249M_B10 (HIV).
In assay [18] the target is HIV Env of isolate 263-8 (HIV).
For assay [19], the target named is HIV Env of isolate 3301.v1.c24 (HIV).
For assay [20], the target named is HIV Env of isolate 6240_08_TA5_4622 (HIV).
Assay [21] deals with HIV Env of isolate 6244_13_B5_4576 (HIV).
In assay [22] the target is HIV Env of isolate 6535.3 (HIV).
In assay [23] the target is HIV Env of isolate 6540.v4.c1 (HIV).
The target of assay [24] is HIV Env of isolate 7030102001E5(Rev-) (HIV).
The target of assay [25] is HIV Env of isolate 928-28 (HIV).
In assay [26] the target is HIV Env of isolate AC10.0.29 (HIV).
Assay [27] addresses HIV Env of isolate BJOX009000.02.4 (HIV).
Assay [28] has as its target HIV Env of isolate CAAN5342.A2 (HIV).
The target of assay [29] is HIV Env of isolate CAP210.2.00.E8 (HIV).
The target in assay [30] is HIV Env of isolate CAP45.2.00.G3 (HIV).
The target in assay [31] is HIV Env of isolate CNE17 (HIV).
Assay [32] addresses HIV Env of isolate Ce1172_H1 (HIV).
The target in assay [33] is HIV Env of isolate Ce704809221_1B3 (HIV).
Assay [34] has as its target HIV Env of isolate HIV-0013095-2.11 (HIV).
Assay [35] has as its target HIV Env of isolate HIV-16055-2.3 (HIV).
Assay [36] concerns the target HIV Env of isolate HIV-16845-2.22 (HIV).
Assay [37] has as its target HIV Env of isolate P0402_C2_11 (HIV).
For assay [38], the target named is HIV Env of isolate QH0692.42 (HIV).
For assay [39], the target named is HIV Env of isolate SC05_8C11_2344 (HIV).
The target of assay [40] is HIV Env of isolate SC422661.8 (HIV).
The target of assay [41] is HIV Env of isolate T211-9 (HIV).
Assay [42] has as its target HIV Env of isolate TRJO4551.58 (HIV).
In assay [43] the target is HIV Env of isolate TRO.11 (HIV).
For assay [44], the target named is HIV Env of isolate WEAU_d15_410_5017 (HIV).
In assay [45] the target is HIV Env of isolate X1193_c1 (HIV).
In assay [46] the target is HIV Env of isolate X1254_c3 (HIV).
For assay [47], the target named is HIV Env of isolate X2088_c9 (HIV).
Assay [48] concerns the target HIV Env of isolate ZM109F.PB4 (HIV).
In assay [49] the target is HIV Env of isolate ZM135M.PL10a (HIV).
In assay [50] the target is HIV Env of isolate ZM214M.PL15 (HIV).
The target of assay [51] is HIV Env of isolate ZM247v1(Rev-) (HIV).
Assay [52] concerns the target HIV Env of isolate ZM53M.PB12 (HIV).

Numbering of substitutions follows the chain as printed. “And” between values parts separate entries of the source, which are not always exact repeats. Equal values may be shown once. A value given as a limit tells only on which side of the number the result lay.

B1: ePGT121.18 (ePGT121.18.H1 VH and ePGT121.17.L1 VL) (antibody, V domains shown)
VH: QMQLQESGPGLVKPGETLSLTCSVSGASISSSYWSWLRETPGKGLEWIGYTHHSGDTNYAPSLKSRVHLGLHPSKNQVSLSLTSVTAADTAVYYCARTLHGRRIYGVVAFNEYYTYFYWPTWGKGTQVTVSS
VL: SDISVAPGETVRITCGGESIGSRAVQWYQHRPGQAPRLIIYNNQDRPPGIPERFSGSPDIDFGTTATLTISNVEAGDEATYYCHIWDSRRPTNWELGPGTTLTVL
For the molecule B1, the IC50, pseudovirus neutralization in assay [1] was 0.065 µg/mL; in [2] it was above 50 µg/mL; in assay [3], above 50 µg/mL; in [4] it was 0.054 µg/mL; in assay [5], 0.001 µg/mL; in assay [6], 0.0008 µg/mL. Further, the IC50, pseudovirus neutralization in assay [7] came to 0.006 µg/mL; in [8], 0.002 µg/mL. Besides, the IC80, pseudovirus neutralization (M1) in assay [9] was above 50 µg/mL. For the same molecule, the IC80, pseudovirus neutralization (M2) in assay [9] was above 50 µg/mL.

B2: ePGT121.15.H2.L1 (antibody, V domains shown)
VH: B1 VH with Y113W, Y114F, P120E, T121V
VL: B1 VL with T14S, P32A, R37K, S71T, E95V, L96F, P98G
For B2, the neutralization (Table 6 value) in [10] worked out at 0.00199; in assay [11], 0.0053; in assay [12], 0.000394; in [13], 0.00172; in [14], 0.00114; in [15] it was 0.00466. Besides, the neutralization (Table 6 value) in assay [16] was 0.0024; in [17], 0.00271; in [18], 0.00351 and 0.00488; in assay [19], 0.00106; in assay [20], 0.004; in [21] it was 0.00689. Besides, the neutralization (Table 6 value) was found to be 0.00104 in [22]; 0.652 in assay [23]; 0.00197 in [24]; 0.0488 in assay [25]; 0.00196 in assay [26]; 0.0259 in assay [27]. Further, the neutralization (Table 6 value) in [28] is 0.00112; in assay [29] it was 0.0207; in assay [30] it was 9e-06; in assay [31], 0.00577; in assay [32], 0.000582; in assay [33] it was 0.00143. The neutralization (Table 6 value) is 0.698 in assay [34]; 0.698 in [35]; 0.0222 in assay [36]; 0.00193 in assay [37]; 0.0116 in assay [38]; 0.00664 in assay [39]. The neutralization (Table 6 value) is 0.00145 in assay [40]; 0.00508 in assay [41]; 0.00583 in [42]; 0.00115 in assay [43]; 0.00168 in [44]; 0.000174 in assay [45]. Further, the neutralization (Table 6 value) in [46] is 0.00235; in assay [47] it was 0.000985; in assay [48] it was 0.873; in assay [49], 0.122; in [50] it was 0.00727; in [51], 0.000909. In addition, in assay [52], the neutralization (Table 6 value) was 0.00177.

B3: ePGT121.15 (ePGT121.15.H6 VH and ePGT121.15.L1 VL) (antibody, V domains shown)
VH: B1 VH with Y113F, Y114F, P120E, T121V
VL: B1 VL with T14S, P32A, R37K, S71T, E95V, L96F, P98G
Regarding B3, the IC50, pseudovirus neutralization in [1] is 0.385 µg/mL; in assay [2], above 50 µg/mL; in assay [3], above 50 µg/mL; in [4] it was 0.363 µg/mL; in assay [5], 0.003 µg/mL; in assay [6], 0.001 µg/mL. Also, the IC50, pseudovirus neutralization in [7] was 0.01 µg/mL; in assay [8], 0.004 µg/mL. The same molecule showed an IC80, pseudovirus neutralization in assay [9] above 50 µg/mL.

B4: ePGT121.18.17 (ePGT121.18.H17 VH and ePGT121.17.L1 VL) (antibody, V domains shown)
VH: B1 VH with H68T, L69I, H72D
VL: B1 VL
In the case of B4, the IC50, pseudovirus neutralization in [1] is 0.26 µg/mL; in [2] it was above 50 µg/mL; in assay [3], above 50 µg/mL; in [4], 0.338 µg/mL; in assay [5], 0.004 µg/mL; in assay [6], 0.003 µg/mL. The IC50, pseudovirus neutralization stood at 0.013 µg/mL in [7] and 0.011 µg/mL in [8]. This molecule also gave an IC80, pseudovirus neutralization in assay [9] above 50 µg/mL.

These data come from patent US20210292396A1.
